Measured values as given in publication PMC11026163, “Structural basis for excitatory neuropeptide signaling” (Nature Structural & Molecular Biology, 2024).
Where “and” joins values, the source holds several entries; their conditions need not be identical. Equal entries are not always repeated. Non-standard residues stand in square brackets, D forms with d. No end group written: not given here. Cit = NC(=O)NCCC[C@H](N)C(=O)O

Legend:
[1] = molecular target: T1, FaNaC1 (WT) (Malacoceros fuliginosus, UniProt A0AAN0NP85); assay: Two-electrode voltage clamp, peptide-gated currents in Xenopus laevis oocytes expressing WT FaNaC1; format: cell-based
T1 sequence (A0AAN0NP85 1-600): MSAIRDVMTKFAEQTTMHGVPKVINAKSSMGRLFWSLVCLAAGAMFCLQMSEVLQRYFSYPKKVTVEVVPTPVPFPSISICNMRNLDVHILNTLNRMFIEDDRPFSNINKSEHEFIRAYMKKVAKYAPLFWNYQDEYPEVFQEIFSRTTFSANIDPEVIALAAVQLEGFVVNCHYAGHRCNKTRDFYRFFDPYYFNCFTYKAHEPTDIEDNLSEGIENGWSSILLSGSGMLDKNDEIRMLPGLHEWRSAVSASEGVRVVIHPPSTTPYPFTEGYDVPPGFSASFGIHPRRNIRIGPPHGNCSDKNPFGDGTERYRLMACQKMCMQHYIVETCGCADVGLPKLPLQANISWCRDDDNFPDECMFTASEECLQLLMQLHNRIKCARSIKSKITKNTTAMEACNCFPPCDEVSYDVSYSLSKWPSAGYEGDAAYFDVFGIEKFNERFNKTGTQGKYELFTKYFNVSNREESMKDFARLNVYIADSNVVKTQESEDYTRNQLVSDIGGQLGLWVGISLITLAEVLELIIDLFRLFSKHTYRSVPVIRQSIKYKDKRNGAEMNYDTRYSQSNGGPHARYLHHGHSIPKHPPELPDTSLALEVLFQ
Experimental: (§1) FaNaC1 in a modified pSP64 plasmid vector (Supplementary Notes) was used for mutagenesis and messenger RNA preparation and injection into stage V/VI Xenopus laevis oocytes (EcoCyte Bioscience). Mutants were generated by partly overlapping primers (Supplementary Table 1 and ref. [75]), and channel-coding inserts were Sanger sequenced. […] NaCl was replaced with KCl, NH4Cl or H3CNH3Cl (Merck) where appropriate.
(§2) Current amplitudes were measured in Clampfit v.11 (Molecular Devices). N values refer to experiments performed on different oocytes. Data were analyzed in Prism v.9 (GraphPad) and fit with Prism v.9 variable-slope four-parameter nonlinear regression, yielding half-maximal effective activating/inhibiting concentrations (EC50/IC50). […] Mean ± standard error of the mean (s.e.m.) EC50/IC50 from fits to individual cells reported in Main. Currents shown in figures are further filtered (20 Hz) and decimated (50×) in Clampfit 11 for smaller file size.

[2] = test system: FaNaC1 H297S; assay: TEVC, FMRFa- and ASSFVRIa-gated currents at H297S channels; format: cell-based, Malacoceros fuliginosus; details: normalized to maximum FMRFa-gated current
Text: (§3) Fig. 6 FaNaC1 gating mechanism. a, Overlay of ligand-free FaNaC1 (blue) and FaNaC1/FMRFa/diminazene (orange) structures. Adjacent subunit in darker shades. b, Magnified views of boxed regions, left to right: ligand binding site; palm domain; β-turn–TM2a/TM1 interactions. Selected side chains shown as sticks and labeled. c, Illustration of one subunit (left subunit in a) moving during gating: peripheral rolling, internal stasis and β-turn moving outward to allow channel expansion. α6 helix from adjacent subunit in gray. d, Top left and bottom, example recordings from oocytes expressing mutant H297S FaNaC1 channels (scale bars, x, 30 s; y, 1 µA). Top right, mean (± s.e.m., n = 5 oocytes) responses of H297S channels to FMRFa and ASSFVRIa normalized to maximum FMRFa-gated current (I/Imax-FMRFa), compared to WT channels. […]
(§4) Oocytes were clamped at −60 mV unless otherwise indicated, and currents were measured by two-electrode voltage clamp, as previously described, using a Warner OC-725C amplifier and HEKA LIH8 + 8 interface with Patchmaster 2x90.4 software (HEKA), sampling at 500 Hz or 1 kHz and filtering at 100 Hz. Current amplitudes were measured in Clampfit v.11 (Molecular Devices). […] Data were analyzed in Prism v.9 (GraphPad) and fit with Prism v.9 variable-slope four-parameter nonlinear regression, yielding half-maximal effective activating/inhibiting concentrations (EC50/IC50). […]

[3] = molecular target: FMRFamide-gated sodium channel 1 (FaNaC1) from Malacoceros fuliginosus (Malacoceros fuliginosus); assay: cryo-EM structure; FaNaC1 in POPC:POPG (3:1) lipid nanodiscs, 20 mM HEPES pH 7.6, 150 mM NaCl; alone, or with FMRFa 30 µM or ASSFVRIa 100 µM added directly before freezing; C3 symmetry imposed
[4] = test system: FaNaC1 G6′S; assay: TEVC, diminazene block of sustained FMRFa-gated current at mutant channel; format: cell-based, Malacoceros fuliginosus; details: block of Isus
Experimental: (§5) Fig. 5 FaNaC1/FMRFa/diminazene structure. a, Pore-lining residues in FaNaC1/FMRFa/diminazene structure (left) and pore radius for all four cryo-EM structures calculated in HOLE[53] (right). b, Top, diminazene structure (ionized at pH 7.4). Middle, peak (Ipeak) and sustained (Isus) FMRFa (3 µM)-gated currents through FaNaC1 in the absence and presence of diminazene (10 μM). Bottom, % block (individual data points, n = 3 oocytes at −60 mV, 4 at 10 mV, 3 at 80 mV; and means, bars) of Isus by diminazene at three different membrane potentials. c, Magnified view of FaNaC1/FMRFa/diminazene model, showing nonprotein cryo-EM density in the pore as mesh. d, Concentration-dependent block of Isus by diminazene at WT and mutant channels (mean ± s.e.m., n = 4 oocytes, except D0′N—see Source data). e, FMRFa-gated current amplitude (Vm = −60 mV; individual data points (n = 5) and means, bars) in extracellular solutions based on different cations. Source data
(§6) Given the drug’s effect on pore radius and its voltage-dependent block of currents, we hypothesized that this nonprotein density derives from partially unresolved or low occupancy diminazene molecules. […] We also generated mutant G2′S channels but saw no currents in oocytes injected with these RNAs (n = 8 over two batches of ooyctes). An additional helical turn higher, the S-1′A substitution caused constitutive current, as expected for mutating the TM2a-1′ degenerin position, but had no effect on diminazene potency (Fig. 5d and Extended Data Fig. 9c). […] Thus, we interpret our FaNaC1/FMRFa/diminazene structure as an FMRFa-gated, diminazene-blocked, open-channel conformation.
as §1
(§7) Oocytes were clamped at −60 mV unless otherwise indicated, and currents were measured by two-electrode voltage clamp, as previously described, using a Warner OC-725C amplifier and HEKA LIH8 + 8 interface with Patchmaster 2x90.4 software (HEKA), sampling at 500 Hz or 1 kHz and filtering at 100 Hz. Current amplitudes were measured in Clampfit v.11 (Molecular Devices). N values refer to experiments performed on different oocytes. Data were analyzed in Prism v.9 (GraphPad) and fit with Prism v.9 variable-slope four-parameter nonlinear regression, yielding half-maximal effective activating/inhibiting concentrations (EC50/IC50). In establishing EC50 values for activation by FMRFa, we waited 4 min between applications of increasing concentrations. […]

[5] = test system: FaNaC1 G3′S; assay: as above; format: cell-based, Malacoceros fuliginosus; details: block of Isus
Experimental: as §5, §6, §1, §7

[6] = test system: FaNaC1 S-1′A; assay: as above; format: cell-based, Malacoceros fuliginosus; details: block of Isus
Experimental: as §5, §6, §1, §7

[7] = test system: FaNaC1 D0′N; assay: as above; format: cell-based, Malacoceros fuliginosus; details: block of Isus
Experimental: as §5, §6, §1, §7

[8] = test system: FaNaC1 H297S; assay: TEVC, diminazene block of constitutive current of H297S channels; format: cell-based, Malacoceros fuliginosus; details: 30 µM diminazene, mean ± s.e.m., n = 7
Text: as §3, §4

[9] = test system: ENaCs; details: ENaCs possess asparagine at the 0′ position; cited from earlier work
Text: Given the drug’s effect on pore radius and its voltage-dependent block of currents, we hypothesized that this nonprotein density derives from partially unresolved or low occupancy diminazene molecules. […] We ...

[10] = molecular target: T1, FaNaC1 (WT); assay: TEVC, diminazene block of peak and sustained FMRFa-gated current, WT FaNaC1 in oocytes; format: cell-based; details: per oocyte
Experimental: as §1, §2
(a) 1 μM FMRF-gated currents with and without diminazene in an oocyte expressing wildtype (WT) FaNaC1. […] Scale bars: x, 5 s; y, 0.2 µA. (b) Mean ± SEM normalized peak (n = 4 oocytes) and sustained (n = 7 oocytes) current amplitude in the presence of increasing concentrations of diminazene. […] Scale bars: x, 5 s; y, 0.1 µA. Source data

[11] = molecular target: FMRFamide-gated sodium channel 1 (FaNaC1) from Malacoceros fuliginosus (Malacoceros fuliginosus)
[12] = molecular target: FaNaC1 M238C modified by MTSET (Malacoceros fuliginosus)
[13] = molecular target: FaNaC1 F129C (Malacoceros fuliginosus)
[14] = molecular target: FaNaC1 F97C modified by MTSET (Malacoceros fuliginosus)
[15] = molecular target: FaNaC1 F129C modified by MTSET (Malacoceros fuliginosus)
[16] = molecular target: FaNaC1 F97C (Malacoceros fuliginosus)
[17] = molecular target: FaNaC1 M238C (Malacoceros fuliginosus)
[18] = molecular target: FMRFamide-gated sodium channel 1 (FaNaC1) from Malacoceros fuliginosus (Malacoceros fuliginosus); remark: listed apart in the source
[19] = molecular target: FaNaC1 F129A (Malacoceros fuliginosus)
[20] = molecular target: FaNaC1 F129Q (Malacoceros fuliginosus)
[21] = molecular target: FaNaC1 F129L (Malacoceros fuliginosus)
[22] = molecular target: FaNaC1 V122A (Malacoceros fuliginosus)
[23] = [Diminazene] 1e-7 M, 1 μM FMRF-gated current

FMRA–NH2 [FMRAa, FMRFa analog lacking the C-terminal F4 side chain]
activation of current ([1]; 100 μM peptide): barely activating detectable currents

ASSFVRI-NH2 [ASSFVRIa, product of the FVRIamide precursor in several annelids]
agonist type [1]: partial agonist
relative efficacy at H297S compared to WT [2]: increased

FMRFamide-gated sodium channel 1 (FaNaC1) from Malacoceros fuliginosus (receptor)
stoichiometry N [3]: 3

N=C(N)c1ccc(/N=N/Nc2ccc(C(=N)N)cc2)cc1 [diminazene]
effect of mutation on diminazene potency [4]: drastically reduced
effect of mutation on diminazene potency [5]: modestly reduced
effect of mutation on diminazene potency [6]: no effect
effect of mutation on diminazene potency [7]: decreased diminazene potency approximately tenfold
block of constitutive current [8]: 76 ± 5%
sensitivity to diminazene [9]: insensitive
Remaining peak current [10, 23]: 0.9158 and 0.934 and 1.161 and 1.255
Remaining sustained current [10, 23]: 0.6522 and 0.7647 and 0.9533 and 0.9846 and 0.7407 and 0.6744
Remaining peak current ([10]; [Diminazene] 1e-6 M): 0.5053 and 0.783 and 0.8871 and 0.9636

FVRI–NH2 [FVRIa, four C-terminal residues of ASSFVRIa]
activity compared to parent peptide ASSFVRIa [1]: very similar activity

B1: FM(citrulline)F-NH2 (peptide)
peptide: FM[Cit]F-NH2
modifications: N-terminus assumed
SMILES: CSCC[C@H](NC(=O)[C@@H](N)Cc1ccccc1)C(=O)N[C@@H](CCCNC(N)=O)C(=O)N[C@@H](Cc1ccccc1)C(N)=O
EC50 of peptide-gated current, two-electrode voltage clamp, Xenopus oocytes expressing WT FaNaC1 [11]: 690 nM

FMQF-NH2 [FMQF-NH2]
EC50 of peptide-gated current, two-electrode voltage clamp, Xenopus oocytes expressing WT FaNaC1 [11]: 4500 nM

H-FMRF-NH2 [FMRFamide (H-Phe-Met-Arg-Phe-NH2)]
EC50 of FMRFa-gated current with MTSET, two-electrode voltage clamp, Xenopus oocytes [12]: 580 nM
EC50 of FMRFa-gated current without MTSET, two-electrode voltage clamp, Xenopus oocytes [13]: 5000 nM
EC50 of FMRFa-gated current with MTSET, two-electrode voltage clamp, Xenopus oocytes [14]: 4000 nM
EC50 of FMRFa-gated current with MTSET, two-electrode voltage clamp, Xenopus oocytes [15]: > 10000 nM
EC50 of FMRFa-gated current without MTSET, two-electrode voltage clamp, Xenopus oocytes [16]: 250 nM
EC50 of FMRFa-gated current without MTSET, two-electrode voltage clamp, Xenopus oocytes [17]: 140 nM
EC50 of FMRFa-gated current, two-electrode voltage clamp, Xenopus oocytes expressing WT FaNaC1 [18]: 850 nM
EC50 of FMRFa-gated current, two-electrode voltage clamp, Xenopus oocytes [19]: 18000 nM
fold decrease of FMRFa potency (EC50 of gated current) against WT, two-electrode voltage clamp, Xenopus oocytes [20]: 100 fold
EC50 of FMRFa-gated current, two-electrode voltage clamp, Xenopus oocytes [21]: 9000 nM
EC50 of FMRFa-gated current, two-electrode voltage clamp, Xenopus oocytes (20-fold increase in potency) [22]: 40 nM

AMRF-NH2 [AMRF-NH2]
EC50 of peptide-gated current, two-electrode voltage clamp, Xenopus oocytes expressing WT FaNaC1 [11]: 300 nM
